# Data: patent US20110189154
# Experiments:
# [1] = target: 6His-Prx2 (human peroxyredoxin Prx2), superoxidized in the cysteine sulfinic acid form (UniProt P32119)
# [2] = target: 6His-Prx1 (human peroxyredoxin Prx1), superoxidized in the cysteine sulfinic acid form (UniProt Q06830)
# [3] = target: T1, Tsa1 (S. cerevisiae 2-Cys peroxyredoxin) (UniProt P34760)
# T1 sequence: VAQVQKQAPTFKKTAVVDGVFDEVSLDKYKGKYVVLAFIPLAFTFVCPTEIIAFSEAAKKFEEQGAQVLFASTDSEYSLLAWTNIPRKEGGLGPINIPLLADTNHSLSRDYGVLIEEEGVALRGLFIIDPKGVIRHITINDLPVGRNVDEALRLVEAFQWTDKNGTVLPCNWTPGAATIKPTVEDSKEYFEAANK
# Sequence of hSrx1 (human sulfiredoxin) (chain, as listed by the source): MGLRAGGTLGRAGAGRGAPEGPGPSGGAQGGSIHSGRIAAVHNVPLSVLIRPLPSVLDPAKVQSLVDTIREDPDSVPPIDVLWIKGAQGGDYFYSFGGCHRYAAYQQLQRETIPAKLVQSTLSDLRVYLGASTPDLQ
# Sequence of 6His-Prx1 (human peroxyredoxin Prx1), superoxidized in the cysteine sulfinic acid form (Q06830 whole entry): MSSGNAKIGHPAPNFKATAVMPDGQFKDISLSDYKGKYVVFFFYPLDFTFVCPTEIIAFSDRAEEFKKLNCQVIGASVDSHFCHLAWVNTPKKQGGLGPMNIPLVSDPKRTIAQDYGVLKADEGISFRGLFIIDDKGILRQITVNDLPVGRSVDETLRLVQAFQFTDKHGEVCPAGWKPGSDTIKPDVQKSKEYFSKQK
# Sequence of 6His-Prx2 (human peroxyredoxin Prx2), superoxidized in the cysteine sulfinic acid form (P32119 whole entry): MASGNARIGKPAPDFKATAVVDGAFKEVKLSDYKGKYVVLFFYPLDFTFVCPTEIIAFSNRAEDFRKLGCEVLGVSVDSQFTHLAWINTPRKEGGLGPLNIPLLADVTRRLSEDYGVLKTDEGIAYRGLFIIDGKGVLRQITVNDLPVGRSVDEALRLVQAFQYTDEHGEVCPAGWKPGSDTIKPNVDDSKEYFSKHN
Substance,reduction of superoxidized 6His-Prx2 in vitro [1],reduction of superoxidized 6His-Prx1 in vitro [2],reduction of the Cys-SO2H form of Tsa1 [3]
hSrx1 (human sulfiredoxin),"shows the ability of hSrx1, expressed from Baculovirus in High Five cells, to reduce the human peroxyredoxins 6His-Prx1 and 6His-Prx2 superoxidized in the cysteine sulfinic acid form","shows the ability of hSrx1, expressed from Baculovirus in High Five cells, to reduce the human peroxyredoxins 6His-Prx1 and 6His-Prx2 superoxidized in the cysteine sulfinic acid form",–
HA-tagged Srx1^C84S (S. cerevisiae Srx1 with Cys84 changed to serine),–,–,completely eliminates the formation of the disulfide bridge between Srx1 and Tsa1 and the reduction of the Cys-SO2H form of Tsa1
